By Kd is commonly meant a measure of binding affinity in units of concentration.

This is an account of results in US20250101137A1 (TRUSTEES OF TUFTS COLLEGE, published 2025).

The target in assay [1] is Botulinum neurotoxin serotype A1 (BoNT/A) holotoxin (Clostridium botulinum, UniProt P0DPI0). The assay can be described thus: method not stated.
Assay [2] deals with Botulinum neurotoxin serotype B (BoNT/B) holotoxin (Clostridium botulinum, UniProt P10844). The assay can be described thus: SPR; immobilised form of BoNT/B not stated. A general note: In SPR one partner is held on a chip, and binding of the other changes the refractive index at the surface.

B1: scFv #7 (scFv)
scFv: SYELTQPPSMSVALGQTAKVTCQGDNLENFYVQWHQQKPGQAPVTVIFQDNKRPSGIPDRFSGSNSGNTATLTISGARTEDEADYYCQSGHSSIGGVFGSGTSLTVLGQPAAAGGGGSGGGGSGGGGSARQVQLQESGPSLVKPSQTLSLTCTVSGFSLTGNSVTWVRQAPGNVPEWLGGISRGGRTYYDTALKSRLSITRDTSKRQVSLSLSSVTTEDTAMYFCARSAYSTLYDYEYAADIYDWGPGLLVTVSSTSGAPVPYPDPLEPRAA
In turn, B1 had a Kd in assay [1] of roughly 1 nM.

B2: ciB-H11 (VHH)
VHH: QVQLVETGGGLVQAGGSLRLSCAGSGRSFSAAVMGWFRQAPGKEREFVAALRQIIGSTHYADSVKGRFTISRDNAKNMLYLDMNSLKPTDTAAYYCTAGPPTMLDVSTDREYDTWGQGTQVTVSS
In assay [2], B2 displayed a dissociation constant (Kd) of 0.26 nM.

B3: ciB-B9 (VHH)
VHH: TGGGLVQAGGSLRLSCTASGRTSSFYALAWFRQGPGKEREFVAAIGWIDGSTRYTDSAKGRFTISRDAAKNTMYLQMNSLKPEDTAVYSCTARTQYGGSSADPKNYGYWGQGTQVTVSA
Turning to B3, in assay [2], the equilibrium dissociation constant (Kd) was 23 nM.
